Assay results taken from US20180282407A1 (FUKUSHIMA MEDICAL UNIVERSITY, published 2018).
Read-outs that look alike come from different tables or passages of the source. Ends that are not written are not given here.

What was measured:
[1] = target: human CD81 protein (human) (UniProt P60033); experiment: cell-based or functional assay
[2] = target: human CD81 protein (human) (UniProt P60033); experiment: cell-based or functional assay; remark: listed apart in the source
[3] = target: T1, antigenic occludin peptide of SEQ ID NO: 7 (positions 214 to 230 of human occludin, second extracellular … (human, also: KLH carrier linked at N-terminus for immunisation, ELISA form not given here)); experiment: ELISA of subclone culture supernatants on the antigen
T1 construct: also called the antigen; antigenic peptide
T1 peptide: ALCNQFYTPAATGLYVD

Ocln1 = target: T2, Ocln1 (human); experiment: ELISA on coated peptide, acidic conditions (2 N HCl), HRP anti-mouse IgG
T2 construct: has a cysteine and can form a dimer, so the ELISA was also run under acidic conditions (2 N HCl); also called Ocln1 peptide
T2 peptide: ALCNQFYTPA
Description: (§1) Accordingly, Ocln1 consisting of the amino acid sequence represented by SEQ ID NO: 6 ([…]) by the truncation of 7 residues from the […] side of the amino acid sequence represented by SEQ ID NO: 7, Ocln2 consisting of the amino acid sequence represented by SEQ ID NO: 11 ([…]) by the truncation of 7 residues from the 5′-terminal side thereof, and Ocln3 consisting of the amino acid sequence represented by SEQ ID NO: 12 ([…]) by the truncation of 3 to 4 residues from both terminal sides were prepared as antigenic peptides (FIG. 11A). KLH-Ocln peptide (1 μg/well) was used as a positive control antigen.
(§2) Each antigenic peptide was added at 25, 50, 100, and 500 μg/well to an antigen sensitization microplate (Nunc/Thermo Fisher Scientific Inc.) and incubated overnight at room temperature. After blocking with 5% BSA/PBS/0.09% NaN₃ at 37° C. for 2 hours, the 67-2 antibody or normal mouse IgG was added thereto and incubated at room temperature for 1 hour. Ocln1 has a cysteine residue in the sequence and is therefore capable of forming a dimer. Therefore, the analysis was also conducted under acidic conditions (2 N HCl). […] The absorbance at 450 nm/655 nm was measured using a microplate reader. […]

Ocln3 = target: T3, Ocln3 (human); experiment: ELISA on coated peptide
T3 construct: also called Ocln3 peptide
T3 peptide: QFYTPAATG
Description: as §1, §2

Sequence of human CD81 protein (human) (P60033 whole entry): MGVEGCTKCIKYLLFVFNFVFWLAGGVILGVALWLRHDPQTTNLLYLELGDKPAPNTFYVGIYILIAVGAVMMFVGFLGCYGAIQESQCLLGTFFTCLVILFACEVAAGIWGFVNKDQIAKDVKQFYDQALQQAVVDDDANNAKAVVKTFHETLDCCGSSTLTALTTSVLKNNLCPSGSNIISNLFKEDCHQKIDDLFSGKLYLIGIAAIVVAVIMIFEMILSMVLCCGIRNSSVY

Molecule “anti-human CD81 antibody (JS-81 clone; BD Pharmingen)” has an infection inhibition rate, HCVpv 9-3, Huh7.5.1 monolayer culture (luciferase) [1] of 98%, an infection inhibition rate, HCVpv con1, Huh7.5.1 monolayer culture (luciferase) [1] of 99% and an infection inhibition rate, HCVpv H77, Huh7.5.1 monolayer culture (luciferase) [2] of 99.1%. The infection inhibition rate, HCVpv con1, Huh7.5.1 monolayer culture (luciferase) [2] was 99.8%.

B1: mouse anti-human occludin monoclonal antibody clone 67-2 (antibody, IgG1, V domains shown)
VH: EVQLQQSGPELVKPGASVKISCKASGYTFTDYIMDWVKQSHGKSLEWIGYIYPNNGGTGYNQKFKSKATLTIDKSSSTAYMELHSLTSEDSAVYYCAREDGDYGYFDVWGAGTTVTVSS
VL: QAVVTQESALTTSPGGTVILTCRSSTGAVTTSNYANWVQEKPDHLFTGLIGGTSNRAPGVPVRFSGSLIGDKAALTITGAQTEDDAMYFCALWYSTHYVFGGGTKVTVLG
notes: Mouse antibody from hybridoma C67-2; also called 67-2 antibody; anti-occludin antibody 67-2
B1: binds [3]; binds (Ocln1); no binding (Ocln3).
